Data on 2 substances can be found in patent US20130295010A1, “HER2 BINDING PEPTIDES LABELLED WITH A 18F - CONTAINING ORGANOSILICON COMPOUND” (priority 2010, published 2013).

In data set [1] the test system is target-expressing SKOV3 tumors. Conditions: mouse, in vivo.
Experimental: In vivo studies were carried out with female CD-1 nude mice (Charles River Labs, Hopkinton, Mass.) with an age range between 6 and 15 weeks. Mice were housed in a ventilated rack with food and water ad libitum and a standard 12 hour day-night lighting cycle. For xenografts, animals were injected with 100 μl of cells in PBS. Cells were implanted subcutaneously in the right hindquarter. Implantation was performed under isoflurane anesthesia. For SKOV3, between 3×10^6 to 4×10^6 cells were implanted in each mouse. Under these conditions, useable tumors (100 to 300 μg) were obtained in 3 to 4 weeks in greater than 80% of animals injected.
Mice were given tail-vein injections of ˜1 μg of ^99mTc-labeled polypeptides (˜3 μCi/1 μg). […] Three mice were euthanized at each timepoint and tissues of interest dissected and counted on a Perkin Elmer Wallac Wizard 1480 Gamma Counter. […] Urine from cages was pooled with the bladder and also counted. The remaining tissues were counted and the sum of all tissues plus urine for each animal was summed to provide the total injected dose. The % injected dose for each organ was determined based on this total, and organs were weighed for determination of the % injected dose per gram, (% ID/g). […]
Mice were given tail-vein injections of ˜1 ug of ^99mTc-labeled polypeptides (˜10 μCi/1 μg). […] Urine from cages was pooled with the bladder and also counted. […]
For data set [2] the following is noted: mouse, in vivo, iv, 3 MBq, 1.5 h.
Experimental: Following intravenous injection of 3 MBq of activity (2.5 MBq for the 2 min time point), animals were sacrificed at 2, 90, 120 and 180 min post injection and retention of radioactivity was assessed in key organs.

On to “Z02891 (SEQ. ID No. 2) ^18F-fluorobenzyl oxime: Z02891-ONH2 (Mal-AO linker on C-terminal cysteine) conjugated with [18F]4-fluorobenzaldehyde”, for which, in data set [1], the “activity in the kidneys” value was determined as 0.95±0.07 ID/organ.

Substance “[18F]AlF-NOTA(COOH)-2-Z02891(SEQ ID No. 2) [Compound 5]” yielded a kidney retention in data set [2] of 70.3 % ID.
